B1: D3 library clone, CDR-L2 YEGSGKR (Fab, V domains shown)
VH: EVQLVESGGGLVQPGGSLRLSCAASGFNIKDYYMHWVRQAPGKGLEWVGWIDPENGNTIYDPKFQDRFTISADTSKNTAYLQMNSLRAEDTAVYYCARDTAAYFDYWGQGTLVTVSS
VL: DIQMTQSPSSLSASVGDRVTITCKASRDIKSYLSWYQQKPGKAPKLLIYYEGSGKRGVPSRFSGSGSGTDFTLTISSLQPEDFATYYCLQHGESPFTFGQGTKVEIK
notes: Changes against the D3 direct graft (Kabat): VL A51E, T52G, L54G, A55K, D56R; Siblings 8; copies: 1 + 1
B2: D3 library clone, CDR-L2 YEPGLAD (Fab, V domains shown)
VH: EVQLVESGGGLVQPGGSLRLSCAASGFNIKDYYMHWVRQAPGKGLEWVGWIDPENGNTIYDPKFQDRFTISADTSKNTAYLQMNSLRAEDTAVYYCARDTAAYFDYWGQGTLVTVSS
VL: DIQMTQSPSSLSASVGDRVTITCKASRDIKSYLSWYQQKPGKAPKLLIYYEPGLADGVPSRFSGSGSGTDFTLTISSLQPEDFATYYCLQHGESPFTFGQGTKVEIK
notes: Changes against the D3 direct graft (Kabat): VL A51E, T52P, S53G; copies: 1 + 1
B3: D3 library clone, CDR-L2 YESGPAD (Fab, V domains shown)
VH: EVQLVESGGGLVQPGGSLRLSCAASGFNIKDYYMHWVRQAPGKGLEWVGWIDPENGNTIYDPKFQDRFTISADTSKNTAYLQMNSLRAEDTAVYYCARDTAAYFDYWGQGTLVTVSS
VL: DIQMTQSPSSLSASVGDRVTITCKASRDIKSYLSWYQQKPGKAPKLLIYYESGPADGVPSRFSGSGSGTDFTLTISSLQPEDFATYYCLQHGESPFTFGQGTKVEIK
notes: Changes against the D3 direct graft (Kabat): VL A51E, T52S, S53G, L54P; Siblings 2; copies: 1 + 1
B4: D3 library clone, CDR-L2 YETGEPE (Fab, V domains shown)
VH: EVQLVESGGGLVQPGGSLRLSCAASGFNIKDYYMHWVRQAPGKGLEWVGWIDPENGNTIYDPKFQDRFTISADTSKNTAYLQMNSLRAEDTAVYYCARDTAAYFDYWGQGTLVTVSS
VL: DIQMTQSPSSLSASVGDRVTITCKASRDIKSYLSWYQQKPGKAPKLLIYYETGEPEGVPSRFSGSGSGTDFTLTISSLQPEDFATYYCLQHGESPFTFGQGTKVEIK
notes: Changes against the D3 direct graft (Kabat): VL A51E, S53G, L54E, A55P, D56E; copies: 1 + 1
B5: D3 library clone, CDR-L2 YETGPTD (Fab, V domains shown)
VH: EVQLVESGGGLVQPGGSLRLSCAASGFNIKDYYMHWVRQAPGKGLEWVGWIDPENGNTIYDPKFQDRFTISADTSKNTAYLQMNSLRAEDTAVYYCARDTAAYFDYWGQGTLVTVSS
VL: DIQMTQSPSSLSASVGDRVTITCKASRDIKSYLSWYQQKPGKAPKLLIYYETGPTDGVPSRFSGSGSGTDFTLTISSLQPEDFATYYCLQHGESPFTFGQGTKVEIK
notes: Changes against the D3 direct graft (Kabat): VL A51E, S53G, L54P, A55T; copies: 1 + 1
B6: D3 library clone, CDR-L2 YETGWAE (Fab, V domains shown)
VH: EVQLVESGGGLVQPGGSLRLSCAASGFNIKDYYMHWVRQAPGKGLEWVGWIDPENGNTIYDPKFQDRFTISADTSKNTAYLQMNSLRAEDTAVYYCARDTAAYFDYWGQGTLVTVSS
VL: DIQMTQSPSSLSASVGDRVTITCKASRDIKSYLSWYQQKPGKAPKLLIYYETGWAEGVPSRFSGSGSGTDFTLTISSLQPEDFATYYCLQHGESPFTFGQGTKVEIK
notes: Changes against the D3 direct graft (Kabat): VL A51E, S53G, L54W, D56E; copies: 1 + 1
B7: D3 library clone, CDR-L2 YTAGPSD (Fab, V domains shown)
VH: EVQLVESGGGLVQPGGSLRLSCAASGFNIKDYYMHWVRQAPGKGLEWVGWIDPENGNTIYDPKFQDRFTISADTSKNTAYLQMNSLRAEDTAVYYCARDTAAYFDYWGQGTLVTVSS
VL: DIQMTQSPSSLSASVGDRVTITCKASRDIKSYLSWYQQKPGKAPKLLIYYTAGPSDGVPSRFSGSGSGTDFTLTISSLQPEDFATYYCLQHGESPFTFGQGTKVEIK
notes: Changes against the D3 direct graft (Kabat): VL A51T, T52A, S53G, L54P, A55S; copies: 1 + 1
B8: D3 library clone, CDR-L2 YTTGPVD (Fab, V domains shown)
VH: EVQLVESGGGLVQPGGSLRLSCAASGFNIKDYYMHWVRQAPGKGLEWVGWIDPENGNTIYDPKFQDRFTISADTSKNTAYLQMNSLRAEDTAVYYCARDTAAYFDYWGQGTLVTVSS
VL: DIQMTQSPSSLSASVGDRVTITCKASRDIKSYLSWYQQKPGKAPKLLIYYTTGPVDGVPSRFSGSGSGTDFTLTISSLQPEDFATYYCLQHGESPFTFGQGTKVEIK
notes: Changes against the D3 direct graft (Kabat): VL A51T, S53G, L54P, A55V; copies: 1 + 1
B9: D3 library clone, CDR-L2 YVPWTAD (Fab, V domains shown)
VH: EVQLVESGGGLVQPGGSLRLSCAASGFNIKDYYMHWVRQAPGKGLEWVGWIDPENGNTIYDPKFQDRFTISADTSKNTAYLQMNSLRAEDTAVYYCARDTAAYFDYWGQGTLVTVSS
VL: DIQMTQSPSSLSASVGDRVTITCKASRDIKSYLSWYQQKPGKAPKLLIYYVPWTADGVPSRFSGSGSGTDFTLTISSLQPEDFATYYCLQHGESPFTFGQGTKVEIK
notes: Changes against the D3 direct graft (Kabat): VL A51V, T52P, S53W, L54T; copies: 1 + 1
B10: D3 library clone, CDR-L3 LQDGESPFT (Fab, V domains shown)
VH: EVQLVESGGGLVQPGGSLRLSCAASGFNIKDYYMHWVRQAPGKGLEWVGWIDPENGNTIYDPKFQDRFTISADTSKNTAYLQMNSLRAEDTAVYYCARDTAAYFDYWGQGTLVTVSS
VL: DIQMTQSPSSLSASVGDRVTITCKASRDIKSYLSWYQQKPGKAPKLLIYYATSLADGVPSRFSGSGSGTDFTLTISSLQPEDFATYYCLQDGESPFTFGQGTKVEIK
notes: Change against the D3 direct graft (Kabat): VL H91D; Siblings 5; copies: 1 + 1
B11: D3 library clone, CDR-L3 LQDGESPFT, I58F, N82aI, D95N (Fab, V domains shown)
VH: EVQLVESGGGLVQPGGSLRLSCAASGFNIKDYYMHWVRQAPGKGLEWVGWIDPENGNTFYDPKFQDRFTISADTSKNTAYLQMISLRAEDTAVYYCARNTAAYFDYWGQGTLVTVSS
VL: DIQMTQSPSSLSASVGDRVTITCKASRDIKSYLSWYQQKPGKAPKLLIYYATSLADGVPSRFSGSGSGTDFTLTISSLQPEDFATYYCLQDGESPFTFGQGTKVEIK
notes: Changes against the D3 direct graft (Kabat): VL H91D; VH I58F, N82aI, D95N; copies: 1 + 1

What follows are binders tested against T1, human tissue factor (human, UniProt P13726 33-251, limits assumed) (assay: phage ELISA, solution competition: Fab-phage incubated with serially diluted TF, unbound phage captured on TF-coated wells; IC50 used as affinity estimate).
T1 construct: construct not described; also called TF

Point of comparison: B9, IC50 10 nM. Against it:
- B1 — within 1.5-fold, 12 nM
- B2 — within 1.5-fold, 7 nM
- B3 — within 1.5-fold, 8 nM
- B4 — within 1.5-fold, 11 nM
- B5 — within 1.5-fold, 9 nM
- B6 — the same, 10 nM
- B7 — 1.6-fold higher, 16 nM
- B8 — 2.1-fold higher, 21 nM
- B10 — within 1.5-fold, 13 nM
- B11 — within 1.5-fold, 8 nM
